Reference: patent publication US20020045208A1

Target: bFGF receptor molecules present on the surface of the B16 cells (mouse)
Assay: cell-based or functional assay

Substance | cytotoxic activity on B16 cells (WST-1 viability), IC50 | increase of toxicity against rMLA alone on B16 cells | cytotoxic effect on B16 cells (MTT viability), IC50 | improvement of the IC50 value on B16 cells against bFGF-MLA
bFGF-MLA fusion protein (basic fibroblast growth factor fused to the N terminus of rMLA) (from UniProt P09038 134-288) | 0.048 µg/mL | > 100 fold | – | –
bFGF-MLA/rMLB associated fusion protein (bFGF-MLA coupled to rMLB under co-folding) (from UniProt P09038 134-288) | – | – | 0.01 µg/mL | 5 fold
